From patent publication US20240010682A1 (UNIVERSIT T BASEL, published 2024)

Key:
[1] = target: fibrin (Fb) network formed from human fibrinogen by thrombin (human) (UniProt P02671); experiment: two-colour confocal fluorescence microscopy of Fb clots formed at 22 C, Coloc2 in ImageJ
[2] = target: fibrin (Fb) network formed from human fibrinogen by thrombin (human) (UniProt P02671); experiment: two-colour confocal fluorescence microscopy of Fb clots formed at 37 C, Coloc2 in ImageJ
[3] = target: T1, fibrin (Fb) network formed from human fibrinogen by thrombin (human, UniProt P02671 36-629; P02675 45-491; P02679 27-437, limits assumed); experiment: two-colour confocal fluorescence microscopy of Fb clots formed at 22 C, colocalisation (Coloc2)
T1 construct: Human fibrinogen (FIB 3; depleted of plasminogen, fibronectin and von Willebrand Factor), spiked with 1% AlexaFluor 488-labelled fibrinogen and clotted with thrombin and CaCl2; In the imaging experiments it is a cross-linked gel, not a soluble protein; also called Fb clot; Fb fibers
T1 sequence (looked up) 1: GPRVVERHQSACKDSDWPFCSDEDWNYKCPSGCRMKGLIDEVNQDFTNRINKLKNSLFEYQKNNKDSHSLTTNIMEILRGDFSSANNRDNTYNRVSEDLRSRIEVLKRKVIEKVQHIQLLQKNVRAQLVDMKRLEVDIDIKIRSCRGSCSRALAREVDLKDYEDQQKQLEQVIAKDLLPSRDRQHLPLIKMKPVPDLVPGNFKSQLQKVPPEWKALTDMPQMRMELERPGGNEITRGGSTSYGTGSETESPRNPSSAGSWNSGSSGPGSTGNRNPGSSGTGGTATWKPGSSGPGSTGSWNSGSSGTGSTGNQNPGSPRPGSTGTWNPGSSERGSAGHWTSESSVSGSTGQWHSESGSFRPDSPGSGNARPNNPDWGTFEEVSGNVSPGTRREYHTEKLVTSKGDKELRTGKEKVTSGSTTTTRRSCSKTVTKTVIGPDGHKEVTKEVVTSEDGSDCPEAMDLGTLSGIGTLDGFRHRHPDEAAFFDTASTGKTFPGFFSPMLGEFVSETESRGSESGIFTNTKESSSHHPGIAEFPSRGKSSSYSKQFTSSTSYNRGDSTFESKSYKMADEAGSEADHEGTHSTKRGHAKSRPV
T1 sequence (looked up) 2: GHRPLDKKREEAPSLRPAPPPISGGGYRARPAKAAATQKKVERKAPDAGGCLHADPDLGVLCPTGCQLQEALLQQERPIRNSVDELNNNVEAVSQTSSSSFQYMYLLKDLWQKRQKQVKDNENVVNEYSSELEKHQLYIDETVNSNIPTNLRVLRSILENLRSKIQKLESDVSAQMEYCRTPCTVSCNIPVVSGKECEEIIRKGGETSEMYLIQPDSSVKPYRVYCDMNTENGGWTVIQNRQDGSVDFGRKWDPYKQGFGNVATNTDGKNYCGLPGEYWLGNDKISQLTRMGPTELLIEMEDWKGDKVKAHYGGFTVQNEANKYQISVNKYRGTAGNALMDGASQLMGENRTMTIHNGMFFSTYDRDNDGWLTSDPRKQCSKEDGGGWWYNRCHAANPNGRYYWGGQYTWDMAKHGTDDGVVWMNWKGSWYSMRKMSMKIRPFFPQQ
T1 sequence (looked up) 3: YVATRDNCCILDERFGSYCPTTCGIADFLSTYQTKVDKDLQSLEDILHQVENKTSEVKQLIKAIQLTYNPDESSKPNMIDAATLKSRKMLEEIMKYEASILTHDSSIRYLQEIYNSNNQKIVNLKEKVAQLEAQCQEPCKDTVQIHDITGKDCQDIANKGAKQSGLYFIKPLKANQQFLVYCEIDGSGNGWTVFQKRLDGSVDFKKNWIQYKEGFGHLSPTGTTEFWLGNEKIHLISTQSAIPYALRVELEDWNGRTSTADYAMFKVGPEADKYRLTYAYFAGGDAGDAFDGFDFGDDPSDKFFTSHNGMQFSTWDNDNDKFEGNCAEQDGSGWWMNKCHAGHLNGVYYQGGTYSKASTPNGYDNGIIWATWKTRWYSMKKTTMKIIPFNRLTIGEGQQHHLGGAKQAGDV
Excerpt: The inventors N-terminally labelled hELPs and conELPs with Atto647-N-hydroxysuccinimide (red channel) and confirmed they were still cross-linked by FXIIIa. Fluorescent-hELPs (f-hELPs) or fluorescent-conELPs (f-conELPs) were then integrated into Fb clots spiked with 1% AlexaFluor 488-labelled fibrinogen (Fg-488, green channel). The inventors used two color confocal fluorescence microscopy to characterize hELP and Fb network morphology, degree of hELP and Fb colocalization, and the influence of hELP phase transition on clot architecture. […] The inventors observed little to no fluorescence intensity in the red channel when only HEPES buffer or f-conELP were added during formation of Fb networks (FIG. 3a, left, HEPES & conELP).
To quantify hELP and Fb spatial colocalization, the inventors used Coloc2 in ImageJ to calculate Pearson's correlation coefficients (PCC) (J. Adler, I. Parmryd, Cytom. Part A 2010, 77, 733). For f-hELP-Fb clots at 22° C., a PCC between f-hELP and Fb channels of 0.69±0.1 indicated high spatial correlation. For f-conELP-Fb clots, a PCC value of 0.05±0.09 indicated no spatial correlation (FIG. 3b).

Row | Binder | Pearson's correlation coefficient (PCC) between f-hELP and Fb channels [1] | Pearson's correlation coefficient (PCC) between ELP and Fb channels [2] | binding result [3]
1 | fluorescent hELP (f-hELP), hELP labelled with Atto647-N-hydroxysuccinimide (protein, chain 1 pos 1: N-terminal alpha-amine preferentially labelled with Atto647-NHS dye (about 0.95 dye per ELP), written M; minor labelling of K-block lysines is possible.) MGHGVGVPGVGVPGAGVPGVGVPGVGVPGVGVPGVGVPGVGVPGVGVPGVGVPGEGVPGAGSGDQMMLPWPAVALSGVPGVGVPGVGVPGAGVPGVGVPGVGVPGVGVPGVGVPGVGVPGVGVPGVGVPGEGVPGAGSGDQMMLPWPAVALSGVPGVGVPGVGVPGAGVPGVGVPGVGVPGVGVPGVGVPGVGVPGVGVPGVGVPGEGVPGAGSGDQMMLPWPAVALSGVPGVGVPGVGVPGAGVPGVGVPGVGVPGVGVPGVGVPGVGVPGVGVPGVGVPGEGVPGAGSGDQMMLPWPAVALSGVPGVGVPGVGVPGAGVPGVGVPGVGVPGVGVPGVGVPGVGVPGVGVPGVGVPGEGVPGAGVPGVGVPGVGVPGAGVPGVGVPGVGVPGVGVPGVGVPGVGVPGVGVPGVGVPGEGVPGAGVPGVGVPGVGVPGAGVPGVGVPGVGVPGVGVPGVGVPGVGVPGVGVPGVGVPGEGVPGAGVPGVGVPGVGVPGAGVPGVGVPGVGVPGVGVPGVGVPGVGVPGVGVPGVGVPGEGVPGAGVPGVGVPGVGVPGAGVPGVGVPGVGVPGVGVPGVGVPGVGVPGVGVPGVGVPGEGVPGAGSGGSKGSSGVPGVGVPGVGVPGAGVPGVGVPGVGVPGVGVPGVGVPGVGVPGVGVPGVGVPGEGVPGAGSGGSKGSSGVPGVGVPGVGVPGAGVPGVGVPGVGVPGVGVPGVGVPGVGVPGVGVPGVGVPGEGVPGAGSGGSKGSSGVPGVGVPGVGVPGAGVPGVGVPGVGVPGVGVPGVGVPGVGVPGVGVPGVGVPGEGVPGAGSGGSKGSSGVPGWLDSLEFIA | 0.69 | 0.163 | 
2 | fluorescent conELP (f-conELP), conELP labelled with Atto647-N-hydroxysuccinimide (other, chain 1 pos 1: N-terminal alpha-amine labelled with Atto647-NHS dye (about 0.95 dye per ELP), written M., also called f-conELPs; fluorescent-conELPs) MGHGVGVPGVGVPGAGVPGVGVPGVGVPGVGVPGVGVPGVGVPGVGVPGVGVPGEGVPGAGSGDGMMLPWPAVALSGVPGVGVPGVGVPGAGVPGVGVPGVGVPGVGVPGVGVPGVGVPGVGVPGVGVPGEGVPGAGSGDGMMLPWPAVALSGVPGVGVPGVGVPGAGVPGVGVPGVGVPGVGVPGVGVPGVGVPGVGVPGVGVPGEGVPGAGSGDGMMLPWPAVALSGVPGVGVPGVGVPGAGVPGVGVPGVGVPGVGVPGVGVPGVGVPGVGVPGVGVPGEGVPGAGSGDGMMLPWPAVALSGVPGVGVPGVGVPGAGVPGVGVPGVGVPGVGVPGVGVPGVGVPGVGVPGVGVPGEGVPGAGVPGVGVPGVGVPGAGVPGVGVPGVGVPGVGVPGVGVPGVGVPGVGVPGVGVPGEGVPGAGVPGVGVPGVGVPGAGVPGVGVPGVGVPGVGVPGVGVPGVGVPGVGVPGVGVPGEGVPGAGVPGVGVPGVGVPGAGVPGVGVPGVGVPGVGVPGVGVPGVGVPGVGVPGVGVPGEGVPGAGVPGVGVPGVGVPGAGVPGVGVPGVGVPGVGVPGVGVPGVGVPGVGVPGVGVPGEGVPGAGSGGSGGSSGVPGVGVPGVGVPGAGVPGVGVPGVGVPGVGVPGVGVPGVGVPGVGVPGVGVPGEGVPGAGSGGSGGSSGVPGVGVPGVGVPGAGVPGVGVPGVGVPGVGVPGVGVPGVGVPGVGVPGVGVPGEGVPGAGSGGSGGSSGVPGVGVPGVGVPGAGVPGVGVPGVGVPGVGVPGVGVPGVGVPGVGVPGVGVPGEGVPGAGSGGSGGSSGVPGWLDSLEFIA |  |  | no binding (tested: 30 µM f-conELP)
